The data set is described as follows: self-splicing fitness, log relative to wild type (ln ratio); higher = more splicing; Tetrahymena group I intron in knt gene, E. coli kanamycin selection, DiMSum; sequences stand for … in CUCUCU…GGAGGGAAAAGUUAUCAGGCAUGCACCUGGUAGCUAGUCUUUAAACCAAUAGAUUGCAUCGGUUUAAAAGGCAAGACCGUCAAAUUGCGGGAAAGGGGUCAACAGCCGUUCAGUACCAAGUCUCAGGGGAAACUUUGAGAUGGCCUUGCAAAGGGUAUGGUAAUAAGCUGACGGACAUGGUCCUAACCACGCAGCCAAGUCCUAAGUCAACAGAUCUUCUGUUGAUAUGGAUGCAGUUCACAGACUAAAUGUCGGUCGGGGAAGAUGUAUUCUUCUCAUAAGAUAUAGUCGGACCUCUCCUUAAUGGGAGCUAGCGGAUGAAGUGAUGCAACACUGGAGCCGCUGGGAACUAAUUUGUAUGCGAAAGUAUAUUGAUUAGUUUUGGAGUACUCGUGGUCG
The procedure, abridged: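 Library with all eight P1ex-region intron nucleotides randomised, intron inside the knt kanamycin-resistance gene on pET-22b(+), in E. coli BL21(DE3). Cells grew overnight at 37°C or 30°C on LB agar with or without 25 μg/mL kanamycin (plus 100 μg/mL carbenicillin, 50 μM IPTG, 0.2% rhamnose), in six replicate transformations. Pooled colonies were amplicon-sequenced on Illumina HiSeq 2500. DiMSum fitness is the error-weighted combination of wild-type-normalised replicate fold changes, kanamycin versus none.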

± gives the uncertainty stated by the source.

For GUCGAGCAAUAUUACGAAUA, the “self-splicing fitness (ln)” value is, setting by setting: (30 °C) -2.42 ± 0.36; (37 °C) -2.1 ± 0.34.

In the case of GUCGAGCAAUAUUACGACAG, the “self-splicing fitness (ln)” value (30 °C) was -2.66 ± 0.23 and the “self-splicing fitness (ln)” value (37 °C) is -1.75 ± 0.28. For the sequence GUCGAGCAAUAUUACGACAU, the “self-splicing fitness (ln)” value (30 °C) was -0.997 ± 0.015 and the “self-splicing fitness (ln)” value (37 °C) was -0.465 ± 0.033. With GUCGAGCAAUAUUACGACUG, the “self-splicing fitness (ln)” value was -3.17 ± 0.45 (30 °C) and -0.232 ± 0.18 (37 °C). As to GUCGAGCAAUAUUACGAUCU, the “self-splicing fitness (ln)” value is -2.87 ± 0.18 (30 °C) and -0.451 ± 0.12 (37 °C). Turning to GUCGAGCAAUAUUACGAUUC, the “self-splicing fitness (ln)” value is, setting by setting: (30 °C) -1.64 ± 0.24; (37 °C) -0.941 ± 0.26. Regarding GUCGAGCAAUAUUACGAUUU, the “self-splicing fitness (ln)” value is -0.559 ± 0.2 (30 °C) and -0.273 ± 0.19 (37 °C). For GUCGAGCAAUAUUACGCAUA, the “self-splicing fitness (ln)” value was -2.14 ± 0.18 (30 °C) and -1.6 ± 0.16 (37 °C).

For the sequence GUCGAGCAAUAUUACGCGCU, the “self-splicing fitness (ln)” value is, setting by setting: (30 °C) -2.6 ± 0.3; (37 °C) -1.17 ± 0.32. Regarding GUCGAGCAAUAUUACGCGGA, the “self-splicing fitness (ln)” value is, setting by setting: (30 °C) -3.08 ± 0.29; (37 °C) -1.25 ± 0.19. Regarding GUCGAGCAAUAUUACGGAGG, the “self-splicing fitness (ln)” value was -3.76 ± 0.39 (30 °C) and -2.17 ± 0.23 (37 °C). For GUCGAGCAAUAUUACGGAUA, the “self-splicing fitness (ln)” value (37 °C) was -1.25 ± 0.27.

As to GUCGAGCAAUAUUACGGUAG, the “self-splicing fitness (ln)” value is -2.02 ± 0.11 (30 °C) and -2.54 ± 0.25 (37 °C). Take GUCGAGCAAUAUUACGGUCA: the “self-splicing fitness (ln)” value (30 °C) is -1.37 ± 0.26 and the “self-splicing fitness (ln)” value (37 °C) was -0.499 ± 0.24. Turning to GUCGAGCAAUAUUACGUCAU, the “self-splicing fitness (ln)” value runs as follows: (30 °C) -1.8 ± 0.12; (37 °C) -1.13 ± 0.1. With GUCGAGCAAUAUUACGUCUC, the “self-splicing fitness (ln)” value by setting is: (30 °C) -1.76 ± 0.42; (37 °C) -0.346 ± 0.27. Take GUCGAGCAAUAUUACGUGAA: the “self-splicing fitness (ln)” value was -1.6 ± 0.12 (30 °C) and -1.86 ± 0.17 (37 °C). For GUCGAGCAAUAUUACGUUAU, the “self-splicing fitness (ln)” value (30 °C) was -0.538 ± 0.12 and the “self-splicing fitness (ln)” value (37 °C) is -2.13 ± 0.21. In the case of GUCGAGCAAUAUUACGUUCU, the “self-splicing fitness (ln)” value (30 °C) is -1.32 ± 0.15 and the “self-splicing fitness (ln)” value (37 °C) was 0.217 ± 0.13.

Take GUCGAGCAAUAUUACGUUGC: the “self-splicing fitness (ln)” value (30 °C) was -2.19 ± 0.2 and the “self-splicing fitness (ln)” value (37 °C) is -2.25 ± 0.41. On to GUCUAGCAAUAUUACGAAGU, for which the “self-splicing fitness (ln)” value reads like this: (30 °C) -1.23 ± 0.19; (37 °C) -0.107 ± 0.14. As to GUCUAGCAAUAUUACGAAUC, the “self-splicing fitness (ln)” value by setting is: (30 °C) -1.33 ± 0.19; (37 °C) 1.43 ± 0.2. For GUCUAGCAAUAUUACGACCG, the “self-splicing fitness (ln)” value was -1.42 ± 0.4 (30 °C) and -2.17 ± 0.33 (37 °C). Consider GUCUAGCAAUAUUACGAGCG, for which the “self-splicing fitness (ln)” value (30 °C) is -2.05 ± 0.14 and the “self-splicing fitness (ln)” value (37 °C) is -0.599 ± 0.16. With GUCUAGCAAUAUUACGCAAA, the “self-splicing fitness (ln)” value (30 °C) is -1.12 ± 0.13 and the “self-splicing fitness (ln)” value (37 °C) was -0.541 ± 0.12. Turning to GUCUAGCAAUAUUACGCAAU, the “self-splicing fitness (ln)” value runs as follows: (30 °C) -0.524 ± 0.082; (37 °C) -0.156 ± 0.082. On to GUCUAGCAAUAUUACGCACA, for which the “self-splicing fitness (ln)” value reads like this: (30 °C) -0.72 ± 0.12; (37 °C) -0.113 ± 0.14.

In the case of GUCUAGCAAUAUUACGCACC, the “self-splicing fitness (ln)” value reads like this: (30 °C) -1.81 ± 0.11; (37 °C) -0.328 ± 0.14. For the sequence GUCUAGCAAUAUUACGCAGA, the “self-splicing fitness (ln)” value (37 °C) was -2.48 ± 0.31.

With GUCUAGCAAUAUUACGCCGC, where the note is “30 °C”, the “self-splicing fitness (ln)” value is -3.25 ± 0.38. Turning to GUCUAGCAAUAUUACGCCUA, the “self-splicing fitness (ln)” value is -0.955 ± 0.31 (30 °C) and -0.323 ± 0.27 (37 °C). GUCUAGCAAUAUUACGCGAA: the “self-splicing fitness (ln)” value runs as follows: (30 °C) -1.36 ± 0.23; (37 °C) -0.134 ± 0.19.

For GUCUAGCAAUAUUACGCGAU, the “self-splicing fitness (ln)” value is, setting by setting: (30 °C) -1.94 ± 0.21; (37 °C) -2.29 ± 0.23. For the sequence GUCUAGCAAUAUUACGCGGU, the “self-splicing fitness (ln)” value is, setting by setting: (30 °C) -1.78 ± 0.26; (37 °C) -1.04 ± 0.38.

(Values after the supplement of paper PMC7877785.)
